According to patent publication US20240228612A1 (SICHUAN KELUN BIOTECH BIOPHARMACEUTICAL, published 2024):

Key:
human Nectin-3 antigen = human Nectin-3 antigen (human, UniProt Q9NQS3 58-404, limits assumed); experiment: ELISA, coated human Nectin-3, anti-human-HRP
Procedure: (§1) The Nectin family includes members of Nectin-1, Nectin-2, Nectin-3 and Nectin-4, and the members share a sequence identity of about 25%, but have similar structure and function. […] The specific steps were as follows: human Nectin-1, Nectin-2, Nectin-3 and Nectin-4 antigens were diluted to 1 μg/mL with CBS coating solution, coated on an ELISA plate at 100 μL per well, and standed overnight at 4° C.; the liquid in the well was discarded on the next day, and washing was performed once with 300 μL of PBS; 100 μL of PBS (containing 2% BSA) was added, and blocking was performed at 37° C. for 2 hours; 31HZ, 56HZ, 74HZ and Enfortumab antibodies were diluted with PBS (containing 2% BSA), 100 μL was taken and added to the corresponding well, incubated at 37° C. for 2 hours; washing was performed 3 times with 300 μL of PBST; HRP-labeled goat anti-human secondary antibody was diluted at a ratio of 1:10000 with PBS (containing 2% BSA), 100 μL was taken and added to the corresponding well, incubation was performed at 37° C. for 1 hour; washing was performed 5 times with 300 μL of PBST; 100 μL of TMB color development solution was added to the corresponding well, and color development was performed at room temperature for 5-20 minutes; 50 μL of 2N H₂SO₄ was added for stopping, a microplate reader was used for collecting readings at OD450 nm, and the data were imported into Graphpad Prism for curve fitting.

[1] = target: T1, cynomolgus monkey Nectin-4 protein (cynomolgus monkey); experiment: ELISA, coated antigen
T1 construct: also called cynomolgus monkey Nectin-4 antigen
Source text: (§2) The affinity of anti-human Nectin-4 humanized monoclonal antibodies to Nectin-4 protein of different species was detected by ELISA.

human Nectin-4 protein [2] = target: T2, human Nectin-4 protein (human, UniProt Q96NY8 32-349); experiment: ELISA, coated antigen
T2 construct: Purified protein used for coating in ELISA and as analyte in Octet; also called human Nectin-4 antigen
T2 sequence (looked up): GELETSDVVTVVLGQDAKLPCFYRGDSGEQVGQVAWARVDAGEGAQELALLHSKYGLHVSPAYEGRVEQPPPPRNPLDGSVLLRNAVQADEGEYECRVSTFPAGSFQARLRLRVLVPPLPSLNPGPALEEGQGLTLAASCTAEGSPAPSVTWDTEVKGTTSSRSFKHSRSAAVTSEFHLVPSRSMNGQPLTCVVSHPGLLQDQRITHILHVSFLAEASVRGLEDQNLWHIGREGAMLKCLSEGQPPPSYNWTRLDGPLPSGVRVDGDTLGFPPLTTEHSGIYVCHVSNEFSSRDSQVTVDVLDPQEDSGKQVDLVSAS
Source text: as §2

human Nectin-4 protein [3] = target: T2, human Nectin-4 protein; experiment: competitive ELISA, coated Nectin-4; competitor biotin-labeled Nectin-1-hFc
Procedure: Human Nectin-4 is linked to another Nectin-4 molecule or Nectin-1 molecule through the IgV domain. Because 31HZ, 56HZ and 74HZ all bind to the IgV domain of Nectin-4, the competitive activity of the three antibodies was detected by competitive ELISA. The specific steps were as follows: Nectin-4 protein was diluted to 2 μg/mL with CBS coating solution, 100 μL per well, and incubated at 37° C. for 2 hours; washing was performed once with 300 μL PBST, PBS (2% BSA) was then added, 100 μL per well, and incubation was performed at 37° C. for 2 hours; biotin-labeled Nectin-1-hFc was diluted with PBS (2% BSA) to 20 μg/mL; the antibody to be detected was diluted with PBS (2% BSA), wherein the dilution of 31HZ and 74HZ was started from 3.73 μg/mL, 3-fold dilution, and 9 concentration points, the dilution of 56HZ was started from 1.25 μg/mL, 2-fold dilution, and 10 concentration points; the above two diluted solutions were mixed well in equal volumes, and then added to the corresponding well at 100 μL/well, and incubation was performed at room temperature for 2 hours; washing was performed three times with 300 μL PBST; HRP-streptavidin was diluted with PBS (2% BSA) at a ratio of […], and added to the corresponding well at 100 μL/well, incubation was performed at room temperature for 1 hour; washing was performed five times with 300 μL of PBST; 100 μL of TMB was added to the corresponding well, color development was performed at room temperature for 10 minutes, and then terminated by adding 50 μL of 2N H₂SO₄, and a microplate reader was used for collecting readings at 450 nm.

human Nectin-1 antigen = target: T3, human Nectin-1 antigen (human, UniProt Q15223 31-334, limits assumed); experiment: ELISA, coated human Nectin-1, anti-human-HRP
T3 sequence (looked up): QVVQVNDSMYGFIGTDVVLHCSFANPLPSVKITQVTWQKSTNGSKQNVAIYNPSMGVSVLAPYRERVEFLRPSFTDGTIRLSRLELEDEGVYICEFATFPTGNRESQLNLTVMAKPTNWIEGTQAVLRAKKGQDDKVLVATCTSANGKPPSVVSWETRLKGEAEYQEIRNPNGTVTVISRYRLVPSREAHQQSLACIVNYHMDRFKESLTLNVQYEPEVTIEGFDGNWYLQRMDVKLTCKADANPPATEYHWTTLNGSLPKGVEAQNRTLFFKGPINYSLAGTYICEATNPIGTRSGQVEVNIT
Procedure: as §1

[4] = target: T1, cynomolgus monkey Nectin-4 protein; experiment: BLI (Octet Fortebio), antibody on ProA sensor, Nectin-4 as analyte, 1:1 global fit
Procedure: (§3) The dynamic affinity of anti-human Nectin-4 humanized monoclonal antibodies was detected using Octet Fortebio®. The main steps comprised: firstly, the anti-human Nectin-4 humanized monoclonal antibody (concentration of 5 μg/mL) was immobilized on ProA sensor, then subjected to binding reaction with human or cynomolgus monkey Nectin-4 (gradiently diluted to 400 nM, 200 nM, 100 nM, 50 nM, 25 nM, 12.5 nM, 6.25 nM, 0 nM), and the anchored product in the solid phase obtained through fully reaction was subjected to dissociation reaction in PBST buffer. After the completion of the experiment, the results were analyzed by using Data Analysis 11.0 software at 1:1 mode to perform global fitting, thereby obtaining the affinity constant of antibody to antigen.

human Nectin-4 protein [5] = target: T2, human Nectin-4 protein; experiment: as above
Procedure: as §3

Sequence of human Nectin-3 antigen (Q9NQS3 58-404 limits assumed): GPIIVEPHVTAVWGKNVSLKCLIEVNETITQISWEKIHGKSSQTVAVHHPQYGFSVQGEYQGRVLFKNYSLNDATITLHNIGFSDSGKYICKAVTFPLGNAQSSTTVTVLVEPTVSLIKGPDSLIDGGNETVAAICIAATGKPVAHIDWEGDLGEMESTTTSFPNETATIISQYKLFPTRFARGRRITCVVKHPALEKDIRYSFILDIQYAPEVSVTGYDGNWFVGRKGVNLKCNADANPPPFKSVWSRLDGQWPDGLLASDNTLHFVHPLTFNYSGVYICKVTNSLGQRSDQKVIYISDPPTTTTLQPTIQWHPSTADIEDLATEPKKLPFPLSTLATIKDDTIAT

B1: anti-human Nectin-4 humanized monoclonal antibody 74HZ (antibody, human IgG1, kappa, V domains shown)
VH: QVQLVQSGAEVKKPGSSVKVSCKASGYTFINYWMNWVRQAPGQGLEWIGMIHPSDSATRLNQSFQGRVTLTVDKSTSTAYMELSSLRSEDTAVYYCARWGNFYTVNAWYYFDYWGQGTLVTVSS
VL: DIVITQSPDSLAVSLGERATINCKSSQTLLNSNTQKNYLAWYQQKPGQSPKLLFYFASTRESGVPDRFSGSGSGTDFTLTISSLQAEDVAVYFCQQHYSTPLTFGQGTKLEIKR
notes: Human IgG1 heavy chain constant region, human kappa light chain constant region; expressed in CHO-E cells
- binding result (human Nectin-3 antigen): no binding (tested: 10000 ng/mL)
- EC50 [1]: 6.73 ng/mL
- EC50 (human Nectin-4 protein [2]): 8.34 ng/mL
- IC50 (human Nectin-4 protein [3]): 0.0272 µg/mL
- binding result (human Nectin-1 antigen): no binding (tested: 10000 ng/mL)
- Kd [4]: 9.54 nM
- Kd (human Nectin-4 protein [5]): 12.1 nM

B2: anti-human Nectin-4 humanized monoclonal antibody 31HZ (antibody, human IgG1, kappa, V domains shown)
VH: QVQLVQSGAEVKKPGSSVKVSCKASGYTFTDYWMNWVRLAPGQGLEWIGMIHPSDSETRLNQKFQGRVTLTVDKSTSTAYMELSSLRSEDTAVYYCARWDFRIYYAMDYWGQGTLVTVSS
VL: DVVITQSPDSLAVSLGERATINCKSSQSLLNTNSQKNYLAWYQQKPGQSPKLLVYFASTRESGVPDRFSGSGSGTDFTLTISSLQAEDVAVYFCQQHYSTPLTFGGGTKVEIKR
notes: as for B1
- binding result (human Nectin-3 antigen): no binding (tested: 10000 ng/mL)
- EC50 [1]: 4.45 ng/mL
- EC50 (human Nectin-4 protein [2]): 3.6 ng/mL
- IC50 (human Nectin-4 protein [3]): 0.0276 µg/mL
- binding result (human Nectin-1 antigen): no binding (tested: 10000 ng/mL)
- Kd [4]: 14.5 nM
- Kd (human Nectin-4 protein [5]): 22.5 nM

B3: anti-human Nectin-4 humanized monoclonal antibody 56HZ (antibody, human IgG1, kappa, V domains shown)
VH: QVQLQESGPGLVKPSQTLSLTCTVSGYFNSITSDYDWHWIRHHPGKGLEWMGYISFSGRTYYNPSLKSRVTISHDTSKNQFSLKLSSVTAADTAVYYCARGNYDGFDYWGQGTLVTVSS
VL: DIVLTQSPATLSLSPGERATLSCRASQNIGTSIHWYQHKPGQSPRLLIKFASESISGIPARFSGSGSGTDFTLTISSLEPEDFAVYYCQQSKSWPTYTFGGGTKVEIKR
notes: as for B1
- binding result (human Nectin-3 antigen): no binding
- EC50 [1]: 9.85 ng/mL
- EC50 (human Nectin-4 protein [2]): 9.48 ng/mL
- IC50 (human Nectin-4 protein [3]): 0.0269 µg/mL
- binding result (human Nectin-1 antigen): no binding
- Kd [4]: 18.4 nM
- Kd (human Nectin-4 protein [5]): 19.6 nM
